Data reported in patent publication US20260201043A1 (INSTITUT NATIONAL DE LA RECHERCHE SCIENTIFIQUE, published 2026).

How the values were obtained:
[1] = target: T1, recombinant C-terminal domain of human GAL-9 (human, UniProt O00182 210-355); assay: ELISA: sdAb immobilized at 1 µM, 5 µM GAL-9C
T1 construct: also called GAL-9C; GAL-9C (210-355)
Description: (§1) FIGS. 19A-B show the binding of recombinant N-terminal domain of human GAL-9 (GAL-9N, FIG. 19A) and recombinant C-terminal domain of human GAL-9 (GAL-9C, FIG. 19B) to GAL-9-specific sdAbs as measured by ELISA. Briefly, sdAbs were immobilized at 1 μM for 1 h at RT, followed by blocking with PBS containing 10% (v/v) BSA and 0.05% (v/v) Tween™ 20. 5 μM of recombinant GAL-9N or GAL-9C were incubated for 1 h at RT. […] The colorimetric assay was carried out with 3,3′,5,5′-tetramethylbenzidine per the manufacturer's recommendations. Data (mean values±SD) from three independent experiments is shown. Statistical differences were assessed using Tukey's multiple comparisons test. RT=room temperature.

[2] = target: T2, recombinant N-terminal domain of human GAL-9 (human, UniProt O00182 1-148); assay: ELISA: sdAb immobilized at 1 µM, 5 µM GAL-9N
T2 construct: also called GAL-9N; Gal-9N
T2 sequence (O00182 1-148 limits assumed): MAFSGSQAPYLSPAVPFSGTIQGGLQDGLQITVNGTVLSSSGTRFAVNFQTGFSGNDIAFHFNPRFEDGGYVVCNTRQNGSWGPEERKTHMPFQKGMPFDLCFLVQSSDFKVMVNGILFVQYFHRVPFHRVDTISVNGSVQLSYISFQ
Description: as §1

[3] = target: T3, recombinant human galectin-13 (human, UniProt Q9UHV8 1-139, biotinylated for the phage ELISA; labeled with FITC for the HepG2 cell binding assay); assay: ELISA: sdAb immobilized at 1 µM, 5 µM galectin
T3 construct: The background says that Gal-13 dimerizes through Cys136 and Cys138; also called GAL-13; Gal-13
T3 sequence (looked up): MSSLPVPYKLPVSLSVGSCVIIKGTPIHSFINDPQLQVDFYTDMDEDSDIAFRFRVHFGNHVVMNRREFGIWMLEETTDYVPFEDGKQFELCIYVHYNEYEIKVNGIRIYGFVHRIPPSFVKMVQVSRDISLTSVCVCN
Description: Briefly, Nbs were immobilized at 1 μM for 1 h at RT, followed by blocking with PBS containing 10% (v/v) BSA and 0.05% (v/v) Tween™ 20. 5 μM of galectin were incubated for 1 h at RT. […] The colorimetric assay was carried out with 3,3′,5,5′-tetramethylbenzidine per the manufacturer's recommendations. Data (mean values±SD) from one experiment is shown. Statistical differences were assessed using Dunnett's multiple comparisons test. RT=room temperature

[4] = target: T3, recombinant human galectin-13; assay: cell-based or functional assay
[5] = target: T3, recombinant human galectin-13; assay: non-adsorbed phage ELISA on biotinylated GAL-13

T1 sequence (O00182 210-355 limits assumed): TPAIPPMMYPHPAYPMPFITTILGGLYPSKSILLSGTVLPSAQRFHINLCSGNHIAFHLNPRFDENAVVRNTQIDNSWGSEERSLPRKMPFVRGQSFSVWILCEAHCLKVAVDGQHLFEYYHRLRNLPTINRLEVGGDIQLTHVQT

B1: G9N4 (VHH)
VHH: EVQLQASGGGFVQPGGSLRLSCAASGGTWRWTIMGWFRQAPGKEREFVSAISRTNSEYQYYADSVKGRFTISRDNSKNTVYLQMNSLRAEDTATYYCAEPTAVWADKGQEMQSYWGQGTQVTVSS
notes: Synthetic humanized sdAb; on M13 phage in the screening ELISA, purified with His and cMyc tags and immobilized in wells otherwise; also called GAL-9-specific sdAb G9N4; not shown: 6xHis and cMyc tags from vector pHEN2
binding result [1]: binds | binding result [2]: binds

B2: G9N3 (VHH)
VHH: EVQLQASGGGFVQPGGSLRLSCAASGDGSGWDIMGWFRQAPGKEREFVSAISRHDTTYSYYADSVKGRFTISRDNSKNTVYLQMNSLRAEDTATYYCATIPASWNKSYWGQGTQVTVSS
notes: Synthetic humanized sdAb; on M13 phage in the screening ELISA, purified with His and cMyc tags and immobilized in wells otherwise; also called GAL-9-specific sdAb G9N3; not shown: 6xHis and cMyc tags from vector pHEN2
binding result [1]: binds | binding result [2]: binds | binding result [3]: binds

B3: G9N1 (VHH)
VHH: EVQLQASGGGFVQPGGSLRLSCAASGDTSGEYSMGWFRQAPGKEREFVSAISDQGGIEIYYADSVKGRFTISRDNSKNTVYLQMNSLRAEDTATYYCAHTFYDMPDGYRQYWGQGTQVTVSS
notes: Synthetic humanized sdAb; on M13 phage in the screening ELISA, purified with His and cMyc tags and immobilized in wells otherwise; also called GAL-9-specific sdAb G9N1; not shown: 6xHis and cMyc tags from vector pHEN2
binding result [2]: binds | binding result [3]: binds

B4: G13N5 (VHH, not shown: small tags and cut ends)
VHH: EVQLQASGGGFVQPGGSLRLSCAASGYTSNEDSMGWFRQAPGKEREFVSAISRGPSFRTYYADSVKGRFTISRDNSKNTVYLQMNSLRAEDTATYYCAIRLGRLYRYGDLTPKSAYYWGQGTQVTVSS
inhibition of galectin-13-induced apoptosis of Jurkat T cells [4]: -44%

B5: G13N6 (VHH, not shown: small tags and cut ends)
VHH: EVQLQASGGGFVQPGGSLRLSCAASGRTSSLTSMGWFRQAPGKEREFVSAISFSGSMFTYYADSVKGRFTISRDNSKNTVYLQMNSLRAEDTATYYCADKWMHKPANYWGQGTQVTVSS
inhibition of galectin-13-induced apoptosis of Jurkat T cells [4]: -27%

B6: G13N8 (VHH)
VHH: EVQLQASGGGFVQPGGSLRLSCAASGTTWQETKMGWFRQAPGKEREFVSAISRGPNYYPYYADSVKGRFTISRDNSKNTVYLQMNSLRAEDTATYYCADEWMGSINARGHSGYYWGQGTQVTVSS
notes: Synthetic humanized sdAb; on M13 phage in the screening ELISA, purified with His and cMyc tags otherwise; also called GAL-13 sdAb G13N8; not shown: 6xHis and cMyc tags from vector pHEN2
binding result [5]: binds

B7: G13N3 (VHH, not shown: small tags and cut ends)
VHH: EVQLQASGGGFVQPGGSLRLSCAASGRGSRWYGMGWFRQAPGKEREFVSAISAQHSTRAYYADSVKGRFTISRDNSKNTVYLQMNSLRAEDTATYYCAGYMSKMGERKWKYWGQGTQVTVSS
inhibition of galectin-13-induced apoptosis of Jurkat T cells [4]: -23.5%

B8: G13N9 (VHH, not shown: small tags and cut ends)
VHH: EVQLQASGGGFVQPGGSLRLSCAASGRGSALTTMGWFRQAPGKEREFVSAISGDTGLYVYYADSVKGRFTISRDNSKNTVYLQMNSLRAEDTATYYCAGKWLGGRQADTRYWGQGTQVTVSS
inhibition of galectin-13-induced apoptosis of Jurkat T cells [4]: -33%

B9: G13N4 (VHH, not shown: small tags and cut ends)
VHH: EVQLQASGGGFVQPGGSLRLSCAASGSSYAGSAMGWFRQAPGKEREFVSAISSDPDTKAYYADSVKGRFTISRDNSKNTVYLQMNSLRAEDTATYYCAISGQYPYARYWGHGTQVTVSS
inhibition of galectin-13-induced apoptosis of Jurkat T cells [4]: -31%

B10: G13N2 (VHH)
VHH: EVQLQASGGGFVQPGGSLRLSCAASGSTSRSSGMGWFRQAPGKEREFVSAISYRGSGARYYADSVKGRFTISRDNSKNTVYLQMNSLRAEDTATYYCAMWQRQIQPGTRPVWKYWGQGTQVTVSS
notes: Synthetic humanized sdAb; on M13 phage in the screening ELISA, purified with His and cMyc tags otherwise; also called GAL-13 sdAb G13N2; not shown: 6xHis and cMyc tags from vector pHEN2
binding result [5]: binds

B11: G13N1 (VHH, not shown: small tags and cut ends)
VHH: EVQLQASGGGFVQPGGSLRLSCAASGFGSNRSTMGWFRQAPGKEREFVSAISSLSSDPPYYADSVKGRFTISRDNSKNTVYLQMNSLRAEDTATYYCAPAGMRGVMEYWGQGTQVTVSS
inhibition of galectin-13-induced apoptosis of Jurkat T cells [4]: -27%

B12: G13N10 (VHH)
VHH: EVQLQASGGGFVQPGGSLRLSCAASGRTSNQTIGWFRQAPGKEREFVSAISARFDEYGYYADSVKGRFTISRDNSKNTVYLQMNSLRAEDTATYYCALGWPQKSTWRAYTAEYWGQGTQVTVSS
notes: Synthetic humanized sdAb; on M13 phage in the screening ELISA, purified with His and cMyc tags otherwise; also called Nb #10; GAL-13 sdAb G13N10; not shown: 6xHis and cMyc tags from vector pHEN2
binding result [5]: binds
